Laboratory results reported in US8748572B2, “RNase a peptides, fragments and uses thereof” (priority 2006, dated 2014).
“Also recorded” adds a separate entry of the source. Marks after values point to notes of the source that are not given here.

Experiments:
isoelectric point = type: physicochemical
S. aureus 502A = assay: bactericidal colony-forming assay, S. aureus; type: cell-based, Staphylococcus aureus
Method: (§1) FIGS. 5 A & B are graphs showing the bactericidal activity of rRNases A-1 and A-2. In panel (A) E. coli DH5α and in panel (B) S. aureus 502A were re-suspended in 100 mM sodium phosphate buffer, pH 7.4, and incubated with the indicated concentrations of chicken leukocyte RNase A-1 (open squares) and A-2 (closed circles) for 4 h at 37° C., plated on RNase-free LB agar, and grown overnight for colony counts.
RNase A polypeptides and fragments according to the invention that have bactericidal activity are particularly preferred for use in the treatment methods of the invention. The bactericidal and bacteriostatic activity of a particular RNase A polypeptides or fragments can be assessed by known protocols, such as that described in the methods section and the following described protocol, herein referred to as “a standard bacterial colony formation assay.” Bactericidal assays are well-described in the art, and are performed as described previously, and as exemplified in Examples 3-6. Briefly, an aliquot from a single bacterial colony overnight culture grown in Luria-Beitani (LB) broth is diluted 1:100 in sodium phosphate, pH 7.4, collected by centrifugation, and resuspended in sodium phosphate, pH 7.4. […]
Bactericidal assays were performed as described previously with modifications. […] All points were determined in triplicate.

chicken aortic rings = assay: chick aortic ring assay (angiogenesis); type: cell-based; conditions: for blood vessel formation in aortic rings (in words) / Angiogenesis Scores: 2 μM recombinant RNase; for blood vessel formation in aortic rings (in words): ex vivo; for Angiogenesis Scores: 24 h, Mean ± SEM, 6 to 8 rings; for % change of angiogenesis score vs control: 2 μM, ([rRNase − control]×100/[control])
Description: The angiogenic activity of a particular RNase A polypeptide or fragment can be assessed by known protocols, such as that described in the methods section and the following described protocol, herein referred to as “a standard angiogenesis assay.” For example, the chick aortic ring sprouting assay, described in the art, can be a standard angiogenesis assay according to the invention. In the assay, aortic arches are dissected from 13-day-old chicken embryos, cleaned free of unwanted tissue and cut into 0.8 mm slices. Each ring is transferred into center of a well of 96-well plate, and ice-cold Matrigel (Becton Dickinson, Bedford, Mass.) is added immediately to imbed the ring. After solidification of the Matrigel, human endothelial-SFM basal growth medium (Invitrogen) is added to each well. After addition of recombinant leukocyte RNase A-1 or RNase A-2 or control preparation, the rings are incubated at 37° C. for 24 h. Vessels sprouted from rings are observed under microscopy, and assessed by blinded observers.
Both chicken leukocyte RNases are structurally related to the mammalian angiogenin lineage, as discussed above and illustrated in FIG. 1. However, none of the non-mammalian ribonucleases evaluated thus far have been reported to have angiogenic activity. Here, the potential angiogenic activity of recombinant leukocyte RNases A-1 and A-2 was evaluated using the chick aortic ring assay as described in the literature. Briefly, aortic rings prepared from 13 day-old chick embryos were incubated with 2 μM recombinant leukocyte RNases (rRNases).
Table 1 details the results of the chick aortic ring assay. Specifically, vessels sprouted from aortic rings treated with 100 μl of human endothelial-SFM basal growth medium and 2 μM recombinant leukocyte RNase were observed under microscopy and assessed by blinded observers, according previously published methods. Each of the groups (named Exp. 1 and Exp. 2) were composed of 6 to 8 rings. Percent (%) change is a value that represents ([rRNase A-1 or A-2−control]×100/[control]). *p<0.05, as determined using the Student's t-test.
The chick aortic ring sprouting assay was performed as described previously with minor modifications. Aortic arches were dissected from 13-day-old chicken embryos, cleaned free of unwanted tissue and cut into 0.8 mm slices. Each ring was transferred into center of a well of 96-well plate. Ice-cold 10 μl of Matrigel (Becton Dickinson, Bedford, Mass.) were added immediately to imbed the ring. After the Matrigel was solidified, 100 μl of human endothelial-SFM basal growth medium (Invitrogen) was added to each well. After addition of recombinant leukocyte RNase A-1 or RNase A-2 or control preparation, the rings were incubated at 37° C. for 24 h. Vessels sprouted from rings were observed under microscopy, and assessed by blinded observers. Each groups composed of 6 to 8 rings.

E. coli DH5α = assay: bactericidal colony-forming assay, E. coli; type: cell-based, Escherichia coli
Method: as §1
RNase A polypeptides and fragments according to the invention that have bactericidal activity are particularly preferred for use in the treatment methods of the invention. The bactericidal and bacteriostatic activity of a particular RNase A polypeptides or fragments can be assessed by known protocols, such as that described in the methods section and the following described protocol, herein referred to as “a standard bacterial colony formation assay.” Bactericidal assays are well-described in the art, and are performed as described previously, and as exemplified in Examples 3-6. Briefly, an aliquot from a single bacterial colony overnight culture grown in Luria-Beitani (LB) broth is diluted 1:100 in sodium phosphate, pH 7.4, collected by centrifugation, and resuspended in sodium phosphate, pH 7.4. An aliquot of bacteria in buffer are incubated for 4 hr at 37° C. with recombinant protein or peptide at concentrations indicated, or diluent control and were then diluted 10, 100, or 1000-fold prior to plating on LB agar for overnight growth for colony counts.
Next, the bactericidal activity of chicken leukocyte RNases were examined using a colony-forming assay as previously described for eosinophil cationic protein [28]. […] E. coli was more susceptible to the bactericidal activity of leukocyte rRNase A-2 than was S. aureus, as 5 μM rRNase A-2 reduced the colony count of E. coli 10^7-fold, while reducing the colony count of S. aureus, only 100-fold. Recombinant RNase A-1 had no effect on colony number of E. coli or S. aureus concentrations up to and including […].
Bactericidal assays were performed as described previously with modifications. Briefly, 100 microliters from a single bacterial colony overnight culture grown in Luria-Bertani (LB) broth was diluted 1:100 in 100 mM sodium phosphate, pH 7.4, collected by centrifugation, and resuspended in 1 ml sodium phosphate, pH 7.4. Ten microliters of bacteria in buffer are incubated for 4 hr at 37° C. with 10 microliters recombinant protein or peptide at concentrations indicated, or diluent control and were then diluted 10, 100, or 1000-fold prior to plating on LB agar for overnight growth for colony counts. All points were determined in triplicate.

Molecule	isoelectric point (pI) (isoelectric point)	effect on colony number of S. aureus (S. aureus 502A; concentrations up to and including 5)	blood vessel formation in aortic rings (in words) (chicken aortic rings)	Angiogenesis Scores (chicken aortic rings; Exp. 1)	% change of angiogenesis score vs control (chicken aortic rings; Exp. 1)	Angiogenesis Scores (chicken aortic rings; Exp. 2)	% change of angiogenesis score vs control (chicken aortic rings; Exp. 2)	bactericidal activity against E. coli (in words), recombinant proteins (E. coli DH5α; 5 μM, 4 hrs)	effect on colony number of E. coli (E. coli DH5α; concentrations up to and including 5 μl %/1)	reduction of colony count of S. aureus (S. aureus 502A; 5 μM, 4 h at 37° C.) [fold]	reduction of colony count of E. coli (E. coli DH5α; 5 μM, 4 h at 37° C.)	colony count of E. coli after incubation (E. coli DH5α; 5 μM, 4 hrs) [CFU/ml]
rRNase A-1: recombinant carboxy-terminal FLAG-tagged Gallus gallus leukocyte RNase A-1, SEQ ID NO: 2, GenBank DQ395275 (protein, listed as Gallus gallus, C-terminal FLAG tag) VPTYQDFLRTHVDFPKTSFPNIAAYCNVMMVRRGINVHGRCKSLNTFVHTDPRNLNTLCINQPNRALRTTQQQLPVTDCKLIRSHPTCSYTGNQFNHRVRVGCWGGLPVHLDGTFP	10.2	no effect	comparable to that in the control	0.38 ± 0.13 Arbitary Units	+2.7%	0.41 ± 0.06 Arbitary Units	+24%	no impact on colony count	no effect	–	–	–
rRNase A-2: recombinant carboxy-terminal FLAG-tagged Gallus gallus leukocyte RNase A-2, SEQ ID NO: 4, GenBank DQ395276 (protein, listed as Gallus gallus, C-terminal FLAG tag) VPTYQDFLYKHMDFPKTSFPSNAAYCNVMMVRRGMTAHGRCKSFNTFVHTDPRNLNTLCINQPDQALRTTRRHFRITDCKLIRSHPTCRYSGNQFNRRVRVGCRGGLPVHLDGTSP	11.0	–	Prominent blood vessel formation; also recorded: has angiogenic activity ex vivo	0.68 ± 0.26* Arbitary Units	+84%	0.60 ± 0.14* Arbitary Units	+82%	–	–	100	10^7 fold	< 100
